{"source": "paper PMC5352116", "about": "“Quinacrine induces apoptosis in cancer cells by forming a functional bridge between TRAIL-DR5 complex and modulating the mitochondrial intrinsic cascade” (Oncotarget, 2016)", "binders": {"B1": {"name": "Fas-Associated protein with Death Domain (FADD) (natural protein, human (endogenous in MCF-10A-Tr), UniProt Q13158 1-208, looked up)", "chain": "MDPFLVLLHSVSSSLSSSELTELKFLCLGRVGKRKLERVQSGLDLFSMLLEQNDLEPGHTELLRELLASLRRHDLLRRVDDFEAGAAAGAAPGEEDLCAAFNVICDNVGKDWRRLARQLKVSDTKIDSIEDRYPRNLTERVRESLRIWKNTEKENATVAHLVGALRSCQMNLVADLVQEVQQARDLQNRSGAMSPMSWNSDASTSEAS", "notes": "FADD, adaptor protein of the DISC, endogenous in MCF-10A-Tr cells; source: endogenous, MCF-10A-Tr lysate"}}, "target": "T1, Death Receptor 5 (DR5) (human (endogenous in MCF-10A-Tr), UniProt O14763 56-440)", "T1 construct": "Death receptor 5 (DR5, TRAIL-R2/Killer), endogenous in MCF-10A-Tr cells (derived from the human breast epithelial line MCF-10A); precipitated with an anti-DR5 antibody; also called TRAIL-R2; Killer; source: endogenous, MCF-10A-Tr cells (on cells; RIPA lysate)", "experiment": "co-IP; DISC analysis: MCF-10A-Tr cells untreated or treated with QC, TRAIL or TRAIL (10 ng/mL, 3 h) then QC (2.5 uM, 48 h); RIPA lysate, pre-cleared with sepharose-4B beads, immunoprecipitated with anti-DR5 antibody at 4°C overnight; western blot", "conditions": "partners not purified"}
{"binder": "B1", "values": [{"measurement": "fold level in the DISC (anti-DR5 immunoprecipitate), TRAIL+QC treated against untreated cells", "result": 8, "unit": "fold"}]}
